The record followed here is the supplement of paper PMC12764529.

A short description of data set [1]: folding stability dG unfold from trypsin proteolysis; higher = more stable. In outline: (§1)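 Designed mini-proteins with no cysteine and under 80 residues were kept only if AlphaFold2 dimer inter-PAE was above 15. In a PA-tagged cDNA display construct, they were digested with trypsin and chymotrypsin and then sequenced. K50 was inferred by Bayesian fitting of counts, and unfolding free energy was derived per protease or combined against a sequence-predicted unfolded-state K50 and a shared folded-state K50.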

Data set [2] is described as follows: folding stability dG unfold from chymotrypsin proteolysis; higher = more stable. In outline: as §1
The nature of data set [3]: folding stability dG unfold (combined trypsin and chymotrypsin); higher = more stable. Summed up: as §1

± gives the half width of the 95% confidence interval.

For “SAGGSAKLNITKILSVEFSEDGTIRIKVENENGELYELEIKVKVIPPPEKPEIDPKYLTPEDLEKYSAGGSA [r15_41_TrMRF]”, the “folding stability dG unfold” value came to 1.43 ± 0.029 kcal/mol in data set [1], 1.61 ± 0.11 kcal/mol in data set [2] and 1.6 ± 0.12 kcal/mol in data set [3].

Turning to “SAGGSAKMKKVKITLYAKVKSLEEAKEIAEEIKKSFPSIEKVEVKTEPLEDGSLLVKVDAIFYVPESAGGSA [r15_726_TrMRF]”, the “folding stability dG unfold” value in data set [1] worked out at 2.66 ± 0.072 kcal/mol; in data set [2], 4.17 ± 0.11 kcal/mol; in data set [3], 3.7 ± 0.16 kcal/mol.

Take “SAGGSAKNEYITVNITIIVYNPEDGKIEKIINLPIKVPKNLTKEQVINLAKKLLEEKGYEIAEIKGSAGGSA [r15_195_TrMRF]”: the “folding stability dG unfold” value turned out to be 2.22 ± 0.12 kcal/mol in data set [1], 3.24 ± 0.13 kcal/mol in data set [2] and 2.85 ± 0.2 kcal/mol in data set [3].

Regarding “SAGGSAKPDLVRTGPLLLPTAVVLPSVHFADPDVSVSLFRTPNGPPYLALAFIDPETGEPHIVLFPSAGGSA [r15_84_TrMRF]”, the “folding stability dG unfold” value is 0.934 ± 0.036 kcal/mol in data set [1], 1.71 ± 0.07 kcal/mol in data set [2] and 1.44 ± 0.09 kcal/mol in data set [3].

As to “SAGGSAKPELVKKLKEALEEEFPDLKVEVVKVDKKNKKIYIKVKSEEEKKRIAELLKKLGIEVEIESAGGSA [r15_196_TrROS_Hall]”, the “folding stability dG unfold” value came out at 3.06 ± 0.25 kcal/mol in data set [1], 3.33 ± 0.079 kcal/mol in data set [2] and 3.18 ± 0.21 kcal/mol in data set [3].

Turning to “SAGGSAKPKIKINIFYPKDGQWYVMIQDPGGEEVMGPWDDIDKIIEAGIPADDVEIEWMPMPPGQFSAGGSA [r15_955_TrROS]”, the “folding stability dG unfold” value in data set [1] was 1.03 ± 0.014 kcal/mol; in data set [2], 1.15 ± 0.048 kcal/mol; in data set [3], 1.09 ± 0.05 kcal/mol.

Take “SAGGSAKPKIKITITRNEDGSLLVRITLPDGREVELSVDDIKALEDAGINLDDVEITEVEVSPEDLSAGGSA [r15_955_TrROS_Hall]”: the “folding stability dG unfold” value stood at 3.92 ± 0.12 kcal/mol in data set [1], 2.71 ± 0.067 kcal/mol in data set [2] and 3.36 ± 0.13 kcal/mol in data set [3].

With “SAGGSAKPKRFVALIKLKGPEGKEIAEIPIVISPDKPEVDIDEIAREIAEKLGVEEIEAEIKEIEESAGGSA [r15_333_TrMRF]”, the “folding stability dG unfold” value in data set [1] is 0.48 ± 0.13 kcal/mol; in data set [2], 0.633 ± 0.2 kcal/mol; in data set [3] it was 0.498 ± 0.28 kcal/mol.

For the sequence “SAGGSAKPKVEVEIVDVEFEEVEVNGKKYLVMKMKVKLKETGEYIEVTMVFDLKTNKMYIEVKKLPSAGGSA [r15_528_TrROS_Hall]”, the results for the “folding stability dG unfold” value in data set [1], in data set [2] and in data set [3] were 3.49 ± 0.29 kcal/mol, 5.09 ± 0.24 kcal/mol and 5.17 ± 0.43 kcal/mol, respectively.

Take “SAGGSAKRKVEIEIVLSAEELEEAIKEGKPLSEELQKRIEELLKKAEEAGIDEVRIRIVPPGLPEPSAGGSA [r15_304_TrROS_Hall]”: the “folding stability dG unfold” value in data set [1] was 0.89 ± 0.089 kcal/mol; in data set [2], 1.22 ± 0.036 kcal/mol; in data set [3] it was 1.16 ± 0.12 kcal/mol.

With “SAGGSAKRKVEIEIYISREELEEAKKNGKEPTAEAQKQIHRIAKRAREEGMDTVEIKIIPPGQPIPSAGGSA [r15_304_TrROS]”, the “folding stability dG unfold” value was -0.0963 ± 0.34 kcal/mol in data set [1], 0.785 ± 0.18 kcal/mol in data set [2] and 0.309 ± 0.28 kcal/mol in data set [3].

With “SAGGSAKTISIIIPFKGLTPEQAIEIAKELEKLLGTKAKIESIPGKGYILVTLELPNKTSYIIIPGSAGGSA [r15_168_TrMRF]”, the “folding stability dG unfold” value was 1.81 ± 0.041 kcal/mol in data set [1], 2.08 ± 0.039 kcal/mol in data set [2] and 2 ± 0.053 kcal/mol in data set [3].

Turning to “SAGGSAKTVTVEVTLEDGTKITVTVPEDMSEEERKALAQELAEELREKLRQLRELEKEGKEVRIEPSAGGSA [r15_704_TrROS_Hall]”, the “folding stability dG unfold” value in data set [1] was found to be 1.02 ± 0.023 kcal/mol; in data set [2], 2.72 ± 0.042 kcal/mol; in data set [3], 2.23 ± 0.051 kcal/mol.

With “SAGGSAKVIMFPSLEEALDLAKEAMGHGKPIQIFLPDGYMIEIEVKPDPDGKPKIDIKWRKLPPDDSAGGSA [r15_761_TrROS]”, the entries for the “folding stability dG unfold” value in data set [1], in data set [2] and in data set [3] were 2.02 ± 0.13 kcal/mol, 2.8 ± 0.074 kcal/mol and 2.55 ± 0.21 kcal/mol, respectively.

For the sequence “SAGGSAKVIRVKSLEEALKLAEEAKKAGLEVEIKLLPDGSVLITVKPKPKPKVKKVEKKVKLPEGKSAGGSA [r15_761_TrROS_Hall]”, the “folding stability dG unfold” value in data set [1] was 0.507 ± 0.074 kcal/mol; in data set [2], 1.96 ± 0.077 kcal/mol; in data set [3], 1.36 ± 0.15 kcal/mol.

Regarding “SAGGSAKVKIEVIELPPGMTEEELRKLAEEKGLKVEKVDKENLLVKITAKSKEEAEKIKKELEEKLSAGGSA [r15_546_TrROS_Hall]”, the figures for the “folding stability dG unfold” value in data set [1], in data set [2] and in data set [3] were 0.449 ± 0.14 kcal/mol, 0.748 ± 0.13 kcal/mol and 0.511 ± 0.27 kcal/mol, respectively.

Regarding “SAGGSAKVKYKKDKNGNTYPVVEEKKKIKLTVKIKIFDKNGKLVKEITFPANMTLEEIEKEIKKLLSAGGSA [r15_309_TrROS_Hall]”, the “folding stability dG unfold” value in data set [1] worked out at 1.16 ± 0.11 kcal/mol; in data set [2], 1.79 ± 0.11 kcal/mol; in data set [3], 1.61 ± 0.18 kcal/mol.

Take “SAGGSAKVVEKDGKLVIELEVPPDMSEEELKKLAEELAKLLPPGAKIEVKYDKETKRVVIVVELKDSAGGSA [r15_210_TrROS_Hall]”: the “folding stability dG unfold” value was 1.64 ± 0.12 kcal/mol in data set [1], 1.79 ± 0.16 kcal/mol in data set [2] and 1.79 ± 0.14 kcal/mol in data set [3].
